Square brackets hold non-standard residues; d marks the D form. Bip = N[C@@H](Cc1ccc(-c2ccccc2)cc1)C(=O)O; dPhe(4-I) = N[C@H](Cc1ccc(I)cc1)C(=O)O; 2Nal = N[C@@H](Cc1ccc2ccccc2c1)C(=O)O; d2Nal = N[C@H](Cc1ccc2ccccc2c1)C(=O)O; Bta = N[C@@H](Cc1csc2ccccc12)C(=O)O; Tic = O=C(O)[C@@H]1Cc2ccccc2CN1
B1: SKY4-48-28, Ac-Bip-Arg-(pI)DPhe-Phe-NH2 (peptide)
peptide: Ac-[Bip]R[dPhe(4-I)]F-NH2
SMILES: CC(=O)N[C@@H](Cc1ccc(-c2ccccc2)cc1)C(=O)N[C@@H](CCCNC(=N)N)C(=O)N[C@H](Cc1ccc(I)cc1)C(=O)N[C@@H](Cc1ccccc1)C(N)=O
B2: SKY5-146-4, Ac-3Bal-Arg-(pI)DPhe-Phe-NH2 (peptide)
peptide: Ac-[Bta]R[dPhe(4-I)]F-NH2
SMILES: CC(=O)N[C@@H](Cc1csc2ccccc12)C(=O)N[C@@H](CCCNC(=N)N)C(=O)N[C@H](Cc1ccc(I)cc1)C(=O)N[C@@H](Cc1ccccc1)C(N)=O
B3: SKY4-48-31, Ac-Phe-Arg-(pI)DPhe-Phe-NH2 (peptide)
peptide: Ac-FR[dPhe(4-I)]F-NH2
SMILES: CC(=O)N[C@@H](Cc1ccccc1)C(=O)N[C@@H](CCCNC(=N)N)C(=O)N[C@H](Cc1ccc(I)cc1)C(=O)N[C@@H](Cc1ccccc1)C(N)=O
B4: SKY4-48-32, Ac-Nal(2')-Arg-(pI)DPhe-Phe-NH2 (peptide)
peptide: Ac-[2Nal]R[dPhe(4-I)]F-NH2
SMILES: CC(=O)N[C@@H](Cc1ccc2ccccc2c1)C(=O)N[C@@H](CCCNC(=N)N)C(=O)N[C@H](Cc1ccc(I)cc1)C(=O)N[C@@H](Cc1ccccc1)C(N)=O
B5: SKY4-48-2, Ac-Arg-Arg-(pI)DPhe-Bip-NH2 (peptide)
peptide: Ac-RR[dPhe(4-I)][Bip]-NH2
B6: SKY4-48-34, Ac-Arg-Arg-(pI)DPhe-Nal(2')-NH2 (peptide)
peptide: Ac-RR[dPhe(4-I)][2Nal]-NH2
B7: SKY4-48-35, Ac-His-Arg-(pI)DPhe-Nal(2')-NH2 (peptide)
peptide: Ac-HR[dPhe(4-I)][2Nal]-NH2
B8: SKY4-48-39, Ac-Phe-Arg-(pI)DPhe-Nal(2')-NH2 (peptide)
peptide: Ac-FR[dPhe(4-I)][2Nal]-NH2
B9: SKY4-48-40, Ac-Nal(2')-Arg-(pI)DPhe-Nal(2')-NH2 (peptide)
peptide: Ac-[2Nal]R[dPhe(4-I)][2Nal]-NH2
B10: SKY5-146-5, Ac-DNal(2')-Arg-(pI)DPhe-Nal(2')-NH2 (peptide)
peptide: Ac-[d2Nal]R[dPhe(4-I)][2Nal]-NH2
B11: SKY4-48-3, Ac-His-Arg-(pI)DPhe-Bip-NH2 (peptide)
peptide: Ac-HR[dPhe(4-I)][Bip]-NH2
B12: SKY4-48-43, Ac-His-Arg-(pI)DPhe-DNal(2')-NH2 (peptide)
peptide: Ac-HR[dPhe(4-I)][d2Nal]-NH2
B13: SKY4-48-44, Ac-Bip-Arg-(pI)DPhe-DNal(2')-NH2 (peptide)
peptide: Ac-[Bip]R[dPhe(4-I)][d2Nal]-NH2
B14: SKY4-48-46, Ac-Tic-Arg-(pI)DPhe-DNal(2')-NH2 (peptide)
peptide: Ac-[Tic]R[dPhe(4-I)][d2Nal]-NH2
B15: SKY4-48-47, Ac-Phe-Arg-(pI)DPhe-DNal(2')-NH2 (peptide)
peptide: Ac-FR[dPhe(4-I)][d2Nal]-NH2
B16: SKY4-48-48, Ac-Nal(2')-Arg-(pI)DPhe-DNal(2')-NH2 (peptide)
peptide: Ac-[2Nal]R[dPhe(4-I)][d2Nal]-NH2
B17: SKY4-48-49, Ac-DNal(2')-Arg-(pI)DPhe-DNal(2')-NH2 (peptide)
peptide: Ac-[d2Nal]R[dPhe(4-I)][d2Nal]-NH2
B18: SKY5-146-1, Ac-Tic-Arg-(pI)DPhe-Bip-NH2 (peptide)
peptide: Ac-[Tic]R[dPhe(4-I)][Bip]-NH2
B19: SKY4-48-7, Ac-Phe-Arg-(pI)DPhe-Bip-NH2 (peptide)
peptide: Ac-FR[dPhe(4-I)][Bip]-NH2
B20: SKY4-48-4, Ac-Bip-Arg-(pI)DPhe-Bip-NH2 (peptide)
peptide: Ac-[Bip]R[dPhe(4-I)][Bip]-NH2
B21: SKY4-48-14, Ac-Tic-Arg-(pI)DPhe-3Bal-NH2 (peptide)
peptide: Ac-[Tic]R[dPhe(4-I)][Bta]-NH2
B22: SKY4-48-5, Ac-3Bal-Arg-(pI)DPhe-Bip-NH2 (peptide)
peptide: Ac-[Bta]R[dPhe(4-I)][Bip]-NH2
B23: SKY4-48-30, Ac-Tic-Arg-(pI)DPhe-Phe-NH2 (peptide)
peptide: Ac-[Tic]R[dPhe(4-I)]F-NH2
SMILES: CC(=O)N1Cc2ccccc2C[C@H]1C(=O)N[C@@H](CCCNC(=N)N)C(=O)N[C@H](Cc1ccc(I)cc1)C(=O)N[C@@H](Cc1ccccc1)C(N)=O
B24: SKY4-48-36, Ac-Bip-Arg-(pI)DPhe-Nal(2')-NH2 (peptide)
peptide: Ac-[Bip]R[dPhe(4-I)][2Nal]-NH2
B25: SKY4-48-37, Ac-3Bal-Arg-(pI)DPhe-Nal(2')-NH2 (peptide)
peptide: Ac-[Bta]R[dPhe(4-I)][2Nal]-NH2
B26: SKY4-48-38, Ac-Tic-Arg-(pI)DPhe-Nal(2')-NH2 (peptide)
peptide: Ac-[Tic]R[dPhe(4-I)][2Nal]-NH2
B27: SKY5-146-2, Ac-DNal(2')-Arg-(pI)DPhe-Bip-NH2 (peptide)
peptide: Ac-[d2Nal]R[dPhe(4-I)][Bip]-NH2
B28: SKY4-48-17, Ac-DNal(2')-Arg-(pI)DPhe-3Bal-NH2 (peptide)
peptide: Ac-[d2Nal]R[dPhe(4-I)][Bta]-NH2
B29: SKY4-48-21, Ac-3Bal-Arg-(pI)DPhe-Tic-NH2 (peptide)
peptide: Ac-[Bta]R[dPhe(4-I)][Tic]-NH2
B30: SKY6-24-1, Ac-Tic-Arg-(pI)DPhe-Tic-NH2 (peptide)
peptide: Ac-[Tic]R[dPhe(4-I)][Tic]-NH2
B31: SKY4-48-24, Ac-Nal(2')-Arg-(pI)DPhe-Tic-NH2 (peptide)
peptide: Ac-[2Nal]R[dPhe(4-I)][Tic]-NH2

How the values were obtained:
Assay in all cases: cell-based or functional assay
[1] = target: mouse melanocortin-5 receptor (mouse, UniProt P41149 1-325)
Sequence of mouse melanocortin-5 receptor (P41149 whole entry): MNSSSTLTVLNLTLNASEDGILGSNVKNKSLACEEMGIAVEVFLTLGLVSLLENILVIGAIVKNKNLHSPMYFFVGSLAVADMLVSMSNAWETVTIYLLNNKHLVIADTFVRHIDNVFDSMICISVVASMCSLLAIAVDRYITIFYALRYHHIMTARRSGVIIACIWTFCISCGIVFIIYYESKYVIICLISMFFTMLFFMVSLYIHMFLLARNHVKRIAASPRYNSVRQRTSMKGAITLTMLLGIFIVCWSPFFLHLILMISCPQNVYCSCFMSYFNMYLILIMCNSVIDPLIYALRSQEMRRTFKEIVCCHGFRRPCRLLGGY

[2] = target: mouse melanocortin-3 receptor (mouse, UniProt P33033 1-323)
Sequence of mouse melanocortin-3 receptor (P33033 whole entry): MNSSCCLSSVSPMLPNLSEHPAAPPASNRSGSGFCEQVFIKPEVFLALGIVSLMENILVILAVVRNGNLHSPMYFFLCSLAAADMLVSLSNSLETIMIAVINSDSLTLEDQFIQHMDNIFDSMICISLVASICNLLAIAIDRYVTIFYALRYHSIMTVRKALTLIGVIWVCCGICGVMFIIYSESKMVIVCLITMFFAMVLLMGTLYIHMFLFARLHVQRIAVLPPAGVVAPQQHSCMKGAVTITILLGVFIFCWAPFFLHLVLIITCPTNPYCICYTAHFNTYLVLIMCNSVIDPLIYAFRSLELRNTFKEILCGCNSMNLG

[3] = target: mouse melanocortin-1 receptor (mouse, UniProt Q01727 1-315)
Sequence of mouse melanocortin-1 receptor (Q01727 whole entry): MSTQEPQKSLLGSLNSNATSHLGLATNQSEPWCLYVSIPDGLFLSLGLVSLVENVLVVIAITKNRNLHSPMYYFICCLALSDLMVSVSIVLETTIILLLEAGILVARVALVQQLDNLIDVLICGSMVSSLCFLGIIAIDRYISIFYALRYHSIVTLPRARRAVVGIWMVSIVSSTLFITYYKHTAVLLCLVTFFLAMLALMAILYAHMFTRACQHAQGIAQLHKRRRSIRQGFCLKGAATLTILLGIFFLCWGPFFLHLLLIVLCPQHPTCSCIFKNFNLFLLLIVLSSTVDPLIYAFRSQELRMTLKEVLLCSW

[4] = target: mouse melanocortin-4 receptor (mouse, UniProt P56450 1-332)
Sequence of mouse melanocortin-4 receptor (P56450 whole entry): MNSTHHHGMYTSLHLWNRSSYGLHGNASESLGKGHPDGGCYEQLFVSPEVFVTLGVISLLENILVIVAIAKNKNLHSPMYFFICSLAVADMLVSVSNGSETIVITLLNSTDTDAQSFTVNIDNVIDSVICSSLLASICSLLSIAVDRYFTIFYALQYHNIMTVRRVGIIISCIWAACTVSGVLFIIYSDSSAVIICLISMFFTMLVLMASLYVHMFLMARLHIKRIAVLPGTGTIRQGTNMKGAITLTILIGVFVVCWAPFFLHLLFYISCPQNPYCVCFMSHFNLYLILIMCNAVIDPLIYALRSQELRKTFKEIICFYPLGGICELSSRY

Binder | Agonist, % of NDP-MSH maximal response [1] [% @ 100 µM] | Agonist, % of NDP-MSH maximal response [2] [% @ 100 µM] | Agonist, % of NDP-MSH maximal response [3] [% @ 100 µM] | Agonist, % of NDP-MSH maximal response [4] [% @ 100 µM]
B1 | 69 | 77 | – | –
B2 | 35 | 37 | – | –
B3 | 52 | 50 | – | –
B4 | 49 | 42 | – | –
B5 | – | 45 | 44 | 32
B6 | – | 51 | – | –
B7 | – | 57 | – | 35
B8 | 61 | 44 | – | –
B9 | 45 | 39 | – | –
B10 | 40 | 43 | – | 39
B11 | – | 53 | – | 43
B12 | 47 | – | – | 50
B13 | 55 | 32 | – | –
B14 | 74 | 42 | – | 33
B15 | 39 | 22 | – | –
B16 | 40 | 31 | 53 | –

Binder | Agonist, % of NDP-MSH maximal response [1] [% @ 100 µM] | Agonist, % of NDP-MSH maximal response [2] [% @ 100 µM] | Agonist, % of NDP-MSH maximal response [3] [% @ 100 µM] | Agonist, % of NDP-MSH maximal response [4] [% @ 100 µM]
B17 | 43 | 40 | – | 37
B18 | – | – | 39 | –
B19 | – | 30 | 67 | –
B20 | – | – | – | 24
B21 | – | – | 38 | –
B22 | – | 51 | – | 35
B23 | 21 | – | – | –
B24 | 21 | – | 23 | –
B25 | 50 | – | – | –
B26 | 48 | – | 66 | –
B27 | – | 30 | – | 42
B28 | – | – | – | 45
B29 | – | – | – | 37
B30 | – | – | – | 36
B31 | – | – | – | 33

Source: patent publication US20170342107A1 (REGENTS OF THE UNIVERSITY OF MINNESOTA, published 2017)
